This is an account of results in US20220363763A1 (ABL BIO, published 2022).

Assay [1] deals with T1, recombinant his-tag human LAG3-ECD protein (human, UniProt P18627 23-450).
T1 construct: extracellular domain; not shown: his tag
T1 sequence (looked up): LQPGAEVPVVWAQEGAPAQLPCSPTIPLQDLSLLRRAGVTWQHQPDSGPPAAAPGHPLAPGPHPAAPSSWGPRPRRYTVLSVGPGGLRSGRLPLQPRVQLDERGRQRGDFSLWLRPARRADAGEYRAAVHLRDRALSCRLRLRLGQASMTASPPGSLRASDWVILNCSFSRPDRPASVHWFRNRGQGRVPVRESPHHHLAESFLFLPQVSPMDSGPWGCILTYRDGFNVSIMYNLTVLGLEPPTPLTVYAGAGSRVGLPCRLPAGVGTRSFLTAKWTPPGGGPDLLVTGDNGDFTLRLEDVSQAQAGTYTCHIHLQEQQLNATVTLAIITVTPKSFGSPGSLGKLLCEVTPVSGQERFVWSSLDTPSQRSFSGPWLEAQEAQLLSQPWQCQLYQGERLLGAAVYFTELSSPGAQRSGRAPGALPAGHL
Kind of assay: SPR Biacore T200, antibody captured by anti-human Fc, LAG3-ECD-his injected. The protocol:
The binding of the S20, S24, S27, S31, S87, S119, S120, S128, S136, S161 and T99 antibodies to recombinant his-tag human LAG3-ECD protein was examined by Biacore T200 using a capture method. Anti-LAG3 antibodies were captured using anti-human Fc antibody. The anti-human Fc antibody was coated on chip. Serial concentrations of his-tag human LAG3-ECD protein (0-4 nM) were injected over capture antibodies at the flow rate of 30 μl/min. The dissociation phase was 900 s or 550 s. The Biacore results for the anti-LAG3 antibodies have shown that these anti-LAG3 antibodies are high affinity binder to human LAG3.

In assay [2] the target is T2, recombinant human LAG-3-ECD-human IgG1 fusion protein (human, UniProt P18627 23-450, biotin-labeled in the MHC class II blocking assays).
T2 construct: extracellular domain; also called LAG-3-huFc; LAG-3-ECD-huFc; not shown: human IgG1 Fc
T2 sequence (looked up): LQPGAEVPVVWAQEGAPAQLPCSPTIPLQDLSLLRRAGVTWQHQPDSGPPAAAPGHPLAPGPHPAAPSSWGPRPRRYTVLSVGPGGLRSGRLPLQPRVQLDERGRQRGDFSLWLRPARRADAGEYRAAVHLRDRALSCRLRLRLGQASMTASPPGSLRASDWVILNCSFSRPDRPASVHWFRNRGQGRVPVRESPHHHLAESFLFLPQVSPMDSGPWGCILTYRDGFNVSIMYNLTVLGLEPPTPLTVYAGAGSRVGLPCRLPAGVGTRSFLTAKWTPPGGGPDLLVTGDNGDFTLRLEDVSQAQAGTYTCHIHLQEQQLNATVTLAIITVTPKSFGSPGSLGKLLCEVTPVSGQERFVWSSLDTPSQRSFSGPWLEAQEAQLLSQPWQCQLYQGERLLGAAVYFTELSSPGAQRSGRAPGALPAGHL
Kind of assay: ELISA on coated human LAG3 ECD-Fc; EC50 table has no unit, x axis Ab(nM). The protocol:
(§1) To evaluate the capability of the anti-LAG-3 antibodies to bind to human, rat, and mouse LAG3 the antibodies identified in Example 2.1 were evaluated for their binding property through ELISA. The human, rat and mouse LAG3 ECD-Fc protein were coated to ELISA plate at 1 μg/ml with 100 μl/well. Antibodies from Example 1 were serially diluted with ELISA diluent buffer. […] The resulting plates were washed and then labeled with anti-human IgG(Fab)-HRP antibody. The S31 can only bind to human LAG3. The S27 and T99 can bind to human LAG3 and rat/mouse LAG3 with lower potency. The S119 antibody can bind to human, rat and mouse LAG3 at high potency (FIGS. 22A-22D).

Assay [3] deals with T3, rat LAG3 ECD-Fc protein (rat, UniProt Q5BK54 24-442).
T3 construct: extracellular domain; not shown: Fc part
T3 sequence (looked up): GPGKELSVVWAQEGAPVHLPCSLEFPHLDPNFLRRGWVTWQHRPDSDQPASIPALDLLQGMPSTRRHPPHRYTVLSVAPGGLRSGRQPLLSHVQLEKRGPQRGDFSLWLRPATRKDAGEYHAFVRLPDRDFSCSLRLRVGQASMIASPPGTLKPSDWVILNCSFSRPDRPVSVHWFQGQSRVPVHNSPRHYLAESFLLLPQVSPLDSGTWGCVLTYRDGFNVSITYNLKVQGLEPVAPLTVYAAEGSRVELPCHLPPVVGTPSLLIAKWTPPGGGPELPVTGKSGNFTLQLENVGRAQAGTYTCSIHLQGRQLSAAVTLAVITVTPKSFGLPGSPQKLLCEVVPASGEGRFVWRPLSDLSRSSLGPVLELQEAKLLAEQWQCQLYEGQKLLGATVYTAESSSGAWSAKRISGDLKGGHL
Kind of assay: ELISA on coated rat LAG3 ECD-Fc; EC50 table has no unit, x axis Ab(nM); fit value of a flat curve. Here is the method:
as §1

Assay [4] deals with T4, mouse LAG3 ECD-Fc protein (mouse, UniProt Q61790 24-442).
T4 construct: extracellular domain; not shown: Fc part
T4 sequence (looked up): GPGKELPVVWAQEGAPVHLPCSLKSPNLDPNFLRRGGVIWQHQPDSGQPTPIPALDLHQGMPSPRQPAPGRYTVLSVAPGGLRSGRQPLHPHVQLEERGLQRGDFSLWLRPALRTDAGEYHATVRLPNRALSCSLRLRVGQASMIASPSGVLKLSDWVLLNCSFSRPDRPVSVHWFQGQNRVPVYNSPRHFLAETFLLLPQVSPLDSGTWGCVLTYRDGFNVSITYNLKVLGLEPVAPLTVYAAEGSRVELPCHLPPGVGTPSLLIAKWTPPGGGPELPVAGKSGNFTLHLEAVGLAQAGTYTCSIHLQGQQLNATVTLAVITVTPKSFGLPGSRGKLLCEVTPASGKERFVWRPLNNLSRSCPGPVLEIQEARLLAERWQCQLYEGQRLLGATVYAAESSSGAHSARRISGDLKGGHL
Kind of assay: ELISA on coated mouse LAG3 ECD-Fc; EC50 table has no unit, x axis Ab(nM); fit value of a flat curve. The protocol:
as §1

Assay [5] deals with T2, recombinant human LAG-3-ECD-human IgG1 …. Description: flow cytometry; blocking of biotin-LAG-3-ECD-huFc binding to MHC class II on Raji cells; the curve ends at about 20 nM without a lower plateau. Here is the method: (§2) To evaluate the ability of anti-LAG-3 antibodies to block the binding of sLAG-3 to MHC class II receptor, an in vitro binding assay was designed using biotin-labeled LAG-3-ECD-huFc fusion proteins and Raji cells expressing MHC class II receptor. Antibodies from Example 1 were serially diluted from 20 μg/mL with FACS buffer and pre-incubated with 6 μg/mL of biotin-LAG-3-ECD-huFcc for 30 min at room temperature. The antibody mixture was then added to FcR blocked Raji cells and incubated for 30 min on ice. Cells were then washed with FACS buffer and subsequently stained with streptavidin PE for 30 min on ice and subsequently washed once with FACS buffer. Labeled cells were evaluated for fluorescence intensity by flow cytometry in a BD FACSCalibur™.

The target is the same in assay [6]. Description: ELISA on coated D1-D4 huFc; EC50 table has no unit, x axis Ab(nM). The protocol: Briefly, D1-D4 huFc or ΔD1-D2 huFc was coated at 0.5 μg/ml overnight and then blocked by 5% BSA in PBS. The serially diluted antibodies (starting from 1 μg/ml and 1:3 serial dilution for 10 doses) were incubated with the coated antigen for 1 hr at room temperature. The resulting plates were washed with PBS/T and incubated with goat anti-mouse IgG-HRP for 1 h at room temperature. The plates were developed with TMB substrate and analyzed by spectrophotometer at OD 450-630 nm.

Assay [7] shares this target. Kind of assay: flow cytometry; blocking of biotin-LAG-3-ECD-huFc binding to MHC class II on Raji cells. Here is the method: To evaluate the ability of anti-LAG-3 antibodies to block the binding of sLAG-3 to MHC class II receptor, an in vitro binding assay was designed using biotin-labeled LAG-3-ECD-huFc fusion proteins and Raji cells expressing MHC class II receptor. […] The antibody mixture was then added to FcR blocked Raji cells and incubated for 30 min on ice. Cells were then washed with FACS buffer and subsequently stained with streptavidin PE for 30 min on ice and subsequently washed once with FACS buffer. Labeled cells were evaluated for fluorescence intensity by flow cytometry in a BD FACSCalibur™.

Assay [8] deals with T3, rat LAG3 ECD-Fc protein. Description: ELISA on coated rat LAG3 ECD-Fc; EC50 table has no unit, x axis Ab(nM). Here is the method:
as §1

For assay [9], the target named is T4, mouse LAG3 ECD-Fc protein. Kind of assay: ELISA on coated mouse LAG3 ECD-Fc; EC50 table has no unit, x axis Ab(nM). Here is the method:
as §1

Assay [10] has as its target T2, recombinant human LAG-3-ECD-human IgG1 …. Description: flow cytometry; blocking of biotin-LAG-3-ECD-huFc binding to MHC class II on Raji cells. The protocol:
as §2
This is another data set of the same source.

B1: NLAG3-HDB169-S31 (antibody, human IgG1, V domains shown)
VH: QVQLVQSGAEVKKPGSSVKVSCKASGGTFSSYAISWVRQAPGQGLEWMGGIIPIFGTANYAQKFQGRVTITADESTSTAYMELSSLRSEDTAVYYCARDAGPVGYYGMDVWGQGTTVTVSS
VL: AIRMTQSPSTLSASVGDRVTITCRASQGIAGWLAWYQQKPGKAPKLLIYAASSLQSGVPSRFSGSASGTDFTLTISNLQPEDFATYYCQQAKSFPLTFGGGTKVEIKR
notes: Short label tied by its unique suffix
Take B1: the dissociation constant Kd in assay [1] worked out at 0.03 nM. Besides, in assay [1], the dissociation rate constant (koff) came to 6.25e-05 s⁻¹. Also, the kon in assay [1] was determined as 2.08e+06 M⁻¹ s⁻¹. Moreover, the EC50 in [2] is 0.279 nM; in assay [3], roughly 271000 nM; in [4], 119 nM. In assay [5], the IC50 is 82.6 nM.

B2: 147H mouse monoclonal antibody (antibody, V domains shown)
VH: QVQLQQSGSELVRPGTSVKISCKASGYTFTNYWLGWIKQRPGHGLEWIGDIYPGGDYINYNEKFKGKATLSADTSSSTAYMQLSSLTSEDSAVYFCARPNLPGDYWGQGTSVTVSS
VL: DIVMTQAAFSNPVTLGTSASISCRSSKSLLHSNGITYLYWYLQKPGQSPQLLIYQVSNLASGVPGRFSGSGSGTDFTLRISRVEAEDVGVYYCAQNLELPWTFGGGTKLEIK
notes: Mouse hybridoma antibody
As to B2, the EC50 in assay [6] stood at 0.0979 nM. In [7], the IC50 amounted to 21.4 nM.

B3: NLAG3-HDB169-S119 (antibody, human IgG1, V domains shown)
VH: QVQLVQSGAEVKKPGSSVKVSCKASGGTFSSYAISWVRQAPGQGLEWMGGIIPIFGTANYAQKFQGRVTITADESTSTAYMELSSLRSEDTAVYYCAASTLRVPNPPYWGQGTLVTVSS
VL: EIVLTQSPGTLSLSPGERATLSCRASQSVSSYLAWYQQKPGQAPRLLIYGISSRATGIPDRFSGSGSGTDFTLTISSLQPEDFATYYCQQANNFPLTFGGGTKLEIKR
notes: as for B1
Consider B3, for which, in [1], the Kd amounted to 0.00687 nM, the koff is 0.000149 s⁻¹ and the kon was 2.17e+07 M⁻¹ s⁻¹. The molecule further came in with an EC50 in assay [8] of 0.0387 nM. Besides, the EC50 in [2] was determined as 0.0321 nM. Besides, the EC50 in [9] was determined as 0.0724 nM. Also, in assay [10], the IC50 is 9.29 nM.
